B1: c-myc epitope-tagged human PLCγ2 (PLCγ2-222, wild type) (enzyme)
chain: MSTTVNVDSLAEYEKSQIKRALELGTVMTVFSFRKSTPERRTVQVIMETRQVAWSKTADKIEGFLDIMEIKEIRPGKNSKDFERAKAVRQKEDCCFTILYGTQFVLSTLSLAADSKEDAVNWLSGLKILHQEAMNASTPTIIESWLRKQIYSVDQTRRNSISLRELKTILPLINFKVSSAKFLKDKFVEIGAHKDELSFEQFHLFYKKLMFEQQKSILDEFKKDSSVFILGNTDRPDASAVYLHDFQRFLIHEQQEHWAQDLNKVRERMTKFIDDTMRETAEPFLFVDEFLTYLFSRENSIWDEKYDAVDMQDMNNPLSHYWISSSHNTYLTGDQLRSESSPEAYIRCLRMGCRCIELDCWDGPDGKPVIYHGWTRTTKIKFDDVVQAIKDHAFVTSSFPVILSIEEHCSVEQQRHMAKAFKEVFGDLLLTKPTEASADQLPSPSQLREKIIIKHKKLGPRGDVDVNMEDKKDEHKQQGELYMWDSIDQKWTRHYCAIADAKLSFSDDIEQTMEEEVPQDIPPTELHFGEKWFHKKVEKRTSAEKLLQEYCMETGGKDGTFLVRESETFPNDYTLSFWRSGRVQHCRIRSTMEGGTLKYYLTDNLTFSSIYALIQHYRETHLRCAEFELRLTDPVPNPNPHESKPWYYDSLSRGEAEDMLMRIPRDGAFLIRKREGSDSYAITFRARGKVKHCRINRDGRHFVLGTSAYFESLVELVSYYEKHSLYRKMRLRYPVTPELLERYNMERDINSLYDVSRMYVDPSEINPSMPQRTVKALYDYKAKRSDELSFCRGALIHNVSKEPGGWWKGDYGTRIQQYFPSNYVEDISTADFEELEKQIIEDNPLGSLCRGILDLNTYNVVKAPQGKNQKSFVFILEPKQQGDPPVEFATDRVEELFEWFQSIREITWKIDTKENNMKYWEKNQSIAIELSDLVVYCKPTSKTKDNLENPDFREIRSFVETKADSIIRQKPVDLLKYNQKGLTRVYPKGQRVDSSNYDPFRLWLCGSQMVALNFQTADKYMQMNHALFSLNGRTGYVLQPESMRTEKYDPMPPESQRKILMTLTVKVLGARHLPKLGRSIACPFVEVEICGAEYDNNKFKTTVVNDNGLSPIWAPTQEKVTFEIYDPNLAFLRFVVYEEDMFSDPNFLAHATYPIKAVKSGFRSVPLKNGYSEDIELASLLVFCEMRPVLESEEELYSSCRQLRRRQEELNNQLFLYDTHQNLRNANRDALVKEFSVNENQLQLYQEKCNKRLREKRVSNSKFYS
B2: PLCγ2 spPH (aa 471-913, Δ516-841), wild type (domain or fragment)
chain: GGSGGSKKDEHKQQGELYMWDSIDQKWTRHYCAIADAKLSFSDDIEQTMEEDNPLGSLCRGILDLNTYNVVKAPQGKNQKSFVFILEPKQQGDPPVEFATDRVEELFEWFQSIREITWKIDTK
B3: PLCγ1-122 (PLCγ1 with both portions of the split PH domain of PLCγ2), c-myc epitope-tagged (enzyme)
chain: MAGAASPCANGCGPGAPSDAEVLHLCRSLEVGTVMTLFYSKKSQRPERKTFQVKLETRQITWSRGADKIEGAIDIREIKEIRPGKTSRDFDRYQEDPAFRPDQSHCFVILYGMEFRLKTLSLQATSEDEVNMWIKGLTWLMEDTLQAPTPLQIERWLRKQFYSVDRNREDRISAKDLKNMLSQVNYRVPNMRFLRERLTDLEQRSGDITYGQFAQLYRSLMYSAQKTMDLPFLEASTLRAGERPELCRVSLPEFQQFLLDYQGELWAVDRLQVQEFMLSFLRDPLREIEEPYFFLDEFVTFLFSKENSVWNSQLDAVCPDTMNNPLSHYWISSSHNTYLTGDQFSSESSLEAYARCLRMGCRCIELDCWDGPDGMPVIYHGHTLTTKIKFSDVLHTIKEHAFVASEYPVILSIEDHCSIAQQRNMAQYFKKVLGDTLLTKPVEISADGLPSPNQLKRKILIKHKKLAEGSAYEEVPTSMMYMEDKKDEHKQQGELYMWDSIDQKWTRHYCAIADAKLSFSDDIEQTMGNEDEEEPKEVSSSTELHSNEKWFHGKLGAGRDGRHIAERLLTEYCIETGAPDGSFLVRESETFVGDYTLSFWRNGKVQHCRIHSRQDAGTPKFFLTDNLVFDSLYDLITHYQQVPLRCNEFEMRLSEPVPQTNAHESKEWYHASLTRAQAEHMLMRVPRDGAFLVRKRNEPNSYAISFRAEGKIKHCRVQQEGQTVMLGNSEFDSLVDLISYYEKHPLYRKMKLRYPINEEALEKIGTAEPDYGALYEGRNPGFYVEANPMPTFKCAVKALFDYKAQREDELTFIKSAIIQNVEKQEGGWWRGDYGGKKQLWFPSNYVEEMVNPVALEPEREHLDENSPLGDLCRGILDLNTYNVVKAPQGKNQKSFVFILEPKQQGDPPVEFATDRVEELFEWFQSIREITWKIDTKETEGKIMERRKKIALELSELVVYCRPVPFDEEKIGTERACYRDMSSFPETKAEKYVNKAKGKKFLQYNRLQLSRIYPKGQRLDSSNYDPLPMWICGSQLVALNFQTPDKPMQMNQALFMTGRHCGYVLQPSTMRDEAFDPFDKSSLRGLEPCAISIEVLGARHLPKNGRGIVCPFVEIEVAGAEYDSTKQKTEFVVDNGLNPVWPAKPFHFQISNPEFAFLRFVVYEEDMFSDQNFLAQATFPVKGLKTGYRAVPLKNNYSEDLELASLLIKIDIFPAKQENGDLSPFSGTSLRERGSDASGQLFHGRAREGSFESRYQQPFEDFRISQEHLADHFDSRERRAPRRTRVNGDNRL

Data on three molecules can be found in paper PMC2573054 (The Journal of Biological Chemistry, 2008).

The target in the experiment is His-Rac2 (hexahistidine-tagged Rac2^G12V, aa 2-177) (human, UniProt P15153 2-177, G12V). In words: SPR. (SPR reads the build-up and loss of mass on a sensor chip optically.)
As for B1, the affinity, expressed as Kd, was 3.9 µM; the koff is 0.0031 s⁻¹; the on-rate (kon) was found to be 806 M⁻¹ s⁻¹.

B2 returned a Kd of 17 µM, a koff of 0.0016 s⁻¹ and a kon of 93.8 M⁻¹ s⁻¹.

Take B3: the Kd came to 5.8 µM, the koff worked out at 0.0025 s⁻¹ and the kon came to 434 M⁻¹ s⁻¹.

A word on the Kd: it is the concentration at which binding is half-saturated. A higher Kd goes with weaker binding. As a reminder, the koff is a measure of how fast the partners let go of each other. The term kon denotes the rate constant with which the complex forms. A high value points to faster complex formation.
